Results on 37 molecules are retold here after article PMC10786891, “Massively parallel profiling of RNA-targeting CRISPR-Cas13d”.

By Kd is commonly meant a measure of binding affinity in units of concentration. Read a low Kd as higher affinity.

Residue numbers refer to the chain shown, from its start. Names and notes keep the numbering of the source.

The labels stand for the following.
B1: target 1 MT 5'PFS AAC 3'PFS ACC (mixed)
RNA 1: CACCCGUGCAAAAAUGCAGGGGUCUAAAACUGAGCGGAUAACCUCUCUAUGG
RNA 2: GGGAAUGGAUCCACAUCUACGAAUUCAACCCAUAGAGAGGUUAUCCGCUCAACCAGAUCGGAAGAGCACACGU
B2: target 1 C2G,G17A (mixed)
RNA 1: B1 RNA 1
RNA 2: B1 RNA 2 with A27G, A28U, C29A, G35A, C50G, A52C, C54G
B3: target 1 MT 5'PFS GCG 3'PFS CAU (mixed)
RNA 1: B1 RNA 1
RNA 2: B1 RNA 2 with A27G, A28C, C29G, A52C, C53A, C54U
B4: target 1 MT 5'PFS UAA 3'PFS ACU (mixed)
RNA 1: B1 RNA 1
RNA 2: B1 RNA 2 with A27U, C29A, C54U
B5: target 1 MT 5'PFS GAC 3'PFS UCG (mixed)
RNA 1: B1 RNA 1
RNA 2: B1 RNA 2 with A27G, A52U, C54G
B6: target 1 del8,del22 (mixed)
RNA 1: B1 RNA 1
RNA 2: GGGAAUGGAUCCACAUCUACGAAUUCGUACAUAGAGAGGUUACCGCUCACCGAGAUCGGAAGAGCACACGU
B7: target 1 MT 5'PFS GCG 3'PFS CAA (mixed)
RNA 1: B1 RNA 1
RNA 2: B1 RNA 2 with A27G, A28C, C29G, A52C, C53A, C54A
B8: target 1 MT 5'PFS UAA 3'PFS ACA (mixed)
RNA 1: B1 RNA 1
RNA 2: B1 RNA 2 with A27U, C29A, C54A
B9: target 1 G15A,C21U (mixed)
RNA 1: B1 RNA 1
RNA 2: B1 RNA 2 with A27G, A28U, C29A, C31U, G37A, A52C, C54G
B10: target 1 MT 5'PFS GUC 3'PFS UCA (mixed)
RNA 1: B1 RNA 1
RNA 2: B1 RNA 2 with A27G, A28U, A52U, C54A
B11: target 1 MT 5'PFS CCG 3'PFS UAG (mixed)
RNA 1: B1 RNA 1
RNA 2: B1 RNA 2 with A27C, A28C, C29G, A52U, C53A, C54G
B12: target 1 insA 3' of 4,insU 3' of 4 (mixed)
RNA 1: B1 RNA 1
RNA 2: GGGAAUGGAUCCACAUCUACGAAUUCGUACCAUAGAGAGGUUAUCCGCAUUCACCGAGAUCGGAAGAGCACACGU
B13: target 1 MT 5'PFS GCG 3'PFS CAG (mixed)
RNA 1: B1 RNA 1
RNA 2: B1 RNA 2 with A27G, A28C, C29G, A52C, C53A, C54G
B14: target 1 MT 5'PFS GGG 3'PFS CGC (mixed)
RNA 1: B1 RNA 1
RNA 2: B1 RNA 2 with A27G, A28G, C29G, A52C, C53G
B15: target 1 MT 5'PFS CUC 3'PFS UAA (mixed)
RNA 1: B1 RNA 1
RNA 2: B1 RNA 2 with A27C, A28U, A52U, C53A, C54A
B16: target 1 MT 5'PFS GAC 3'PFS UCU (mixed)
RNA 1: B1 RNA 1
RNA 2: B1 RNA 2 with A27G, A52U, C54U
B17: target 1 MT 5'PFS CCG 3'PFS UAU (mixed)
RNA 1: B1 RNA 1
RNA 2: B1 RNA 2 with A27C, A28C, C29G, A52U, C53A, C54U
B18: target 1 MT 5'PFS CCA 3'PFS CAG (mixed)
RNA 1: B1 RNA 1
RNA 2: B1 RNA 2 with A27C, A28C, C29A, A52C, C53A, C54G
B19: target 1 MT 5'PFS GUC 3'PFS UCU (mixed)
RNA 1: B1 RNA 1
RNA 2: B1 RNA 2 with A27G, A28U, A52U, C54U
B20: target 1 MT 5'PFS GAC 3'PFS UCC (mixed)
RNA 1: B1 RNA 1
RNA 2: B1 RNA 2 with A27G, A52U
B21: target 1 MT 5'PFS GAC 3'PFS UCA (mixed)
RNA 1: B1 RNA 1
RNA 2: B1 RNA 2 with A27G, A52U, C54A
B22: target 1 MT 5'PFS CAA 3'PFS AUC (mixed)
RNA 1: B1 RNA 1
RNA 2: B1 RNA 2 with A27C, C29A, C53U
B23: target 1 MT 5'PFS GUC 3'PFS UCG (mixed)
RNA 1: B1 RNA 1
RNA 2: B1 RNA 2 with A27G, A28U, A52U, C54G
B24: target 1 MT 5'PFS GUC 3'PFS UCC (mixed)
RNA 1: B1 RNA 1
RNA 2: B1 RNA 2 with A27G, A28U, A52U
B25: target 1 MT 5'PFS GUU 3'PFS CAA (mixed)
RNA 1: B1 RNA 1
RNA 2: B1 RNA 2 with A27G, A28U, C29U, A52C, C53A, C54A
B26: target 1 MT 5'PFS GGG 3'PFS CGG (mixed)
RNA 1: B1 RNA 1
RNA 2: B1 RNA 2 with A27G, A28G, C29G, A52C, C53G, C54G
B27: target 1 MT 5'PFS GUU 3'PFS CAC (mixed)
RNA 1: B1 RNA 1
RNA 2: B1 RNA 2 with A27G, A28U, C29U, A52C, C53A
B28: target 1 MT 5'PFS CCG 3'PFS UAC (mixed)
RNA 1: B1 RNA 1
RNA 2: B1 RNA 2 with A27C, A28C, C29G, A52U, C53A
B29: target 1 MT 5'PFS GUC 3'PFS AAA (mixed)
RNA 1: B1 RNA 1
RNA 2: B1 RNA 2 with A27G, A28U, C53A, C54A
B30: target 1 MT 5'PFS CAA 3'PFS AUA (mixed)
RNA 1: B1 RNA 1
RNA 2: B1 RNA 2 with A27C, C29A, C53U, C54A
B31: target 1 MT 5'PFS CCA 3'PFS CAC (mixed)
RNA 1: B1 RNA 1
RNA 2: B1 RNA 2 with A27C, A28C, C29A, A52C, C53A
B32: target 1 MT 5'PFS GAC 3'PFS AAA (mixed)
RNA 1: B1 RNA 1
RNA 2: B1 RNA 2 with A27G, C53A, C54A
B33: target 1 MT 5'PFS UAA 3'PFS ACG (mixed)
RNA 1: B1 RNA 1
RNA 2: B1 RNA 2 with A27U, C29A, C54G
B34: target 1 MT 5'PFS CCA 3'PFS CAU (mixed)
RNA 1: B1 RNA 1
RNA 2: B1 RNA 2 with A27C, A28C, C29A, A52C, C53A, C54U
B35: target 1 MT 5'PFS GUC 3'PFS AAG (mixed)
RNA 1: B1 RNA 1
RNA 2: B1 RNA 2 with A27G, A28U, C53A, C54G
B36: target 1 MT 5'PFS UUA 3'PFS AGU (mixed)
RNA 1: B1 RNA 1
RNA 2: B1 RNA 2 with A27U, A28U, C29A, C53G, C54U
B37: target 1 MT 5'PFS CCG 3'PFS UAA (mixed)
RNA 1: B1 RNA 1
RNA 2: B1 RNA 2 with A27C, A28C, C29G, A52U, C53A, C54A

For this data set, the target named is T1, EsCas13d, nuclease-dead (Eubacterium siraeum, UniProt B0MS50, R295A;H300A;R849A;H854A).
T1 sequence: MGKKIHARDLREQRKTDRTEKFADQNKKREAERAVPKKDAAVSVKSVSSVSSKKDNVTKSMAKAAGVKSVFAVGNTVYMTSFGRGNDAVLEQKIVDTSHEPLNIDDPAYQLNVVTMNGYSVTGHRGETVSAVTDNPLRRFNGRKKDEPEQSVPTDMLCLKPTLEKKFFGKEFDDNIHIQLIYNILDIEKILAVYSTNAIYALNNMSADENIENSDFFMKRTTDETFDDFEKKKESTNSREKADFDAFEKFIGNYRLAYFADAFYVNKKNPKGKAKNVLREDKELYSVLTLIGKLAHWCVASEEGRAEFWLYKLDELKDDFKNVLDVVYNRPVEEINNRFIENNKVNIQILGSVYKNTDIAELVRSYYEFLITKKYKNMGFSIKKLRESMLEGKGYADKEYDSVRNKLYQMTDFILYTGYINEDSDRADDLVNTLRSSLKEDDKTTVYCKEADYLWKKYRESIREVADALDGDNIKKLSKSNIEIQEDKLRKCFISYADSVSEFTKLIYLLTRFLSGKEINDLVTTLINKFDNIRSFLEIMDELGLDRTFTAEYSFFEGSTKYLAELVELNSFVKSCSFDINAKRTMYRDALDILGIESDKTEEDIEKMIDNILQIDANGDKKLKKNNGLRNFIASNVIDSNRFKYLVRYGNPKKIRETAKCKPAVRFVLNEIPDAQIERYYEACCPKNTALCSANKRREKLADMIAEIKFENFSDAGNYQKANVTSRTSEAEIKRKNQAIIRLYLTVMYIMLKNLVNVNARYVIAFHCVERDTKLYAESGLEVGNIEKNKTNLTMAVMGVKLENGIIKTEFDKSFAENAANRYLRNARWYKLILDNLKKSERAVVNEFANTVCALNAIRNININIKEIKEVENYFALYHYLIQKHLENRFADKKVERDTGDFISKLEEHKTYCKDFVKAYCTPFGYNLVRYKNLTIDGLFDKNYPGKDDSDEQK
Nature of the data set: crRNA (strand 1, pre-loaded); Mg2+; 40 mM Tris-HCl pH 7.5, 150 mM NaCl, 6 mM MgCl2, 1 mM DTT, 0.1% Tween-20, 0.2 mg/ml BSA; 25 C; 10 min per concentration, then washed. Conditions: tags: His6-TwinStrep-SUMO cleaved; N-terminal SNAP kept (SNAP-Surface 488); label: 3' end held by stalled T7 RNA polymerase.
B1 gave a Kd of about 0.043 µM.

Take B2: the Kd came out at 0.025 ± 0.0019 µM. The result for B3 reads about 0.029 µM; that for B4, 0.029 ± 0.007 µM; that for B5, 0.0132 ± 0.0019 µM. As for B6, the Kd was found to be 0.0329 ± 0.0017 µM.

B7 had a Kd of 0.0495 ± 0.0245 µM.

The molecule B8 registered a Kd of 0.0435 ± 0.0175 µM. B9: the Kd amounted to 0.0069 ± 0.0004 µM. With B10, the Kd was found to be 0.0185 ± 0.0055 µM. In turn, B11 had a Kd of 0.00335 ± 0.000595 µM.

B12 had a Kd of 0.0124 ± 0.0016 µM. The same measure for B13: about 0.0565 µM.

For the molecule B14, the equilibrium dissociation constant (Kd) is 0.064 ± 0.03 µM. The same measure for B15: 0.059 ± 0.025 µM; for B16: 0.0128 ± 0.0048 µM; for B17: 0.0032 ± 0.001 µM.

Take B18: the affinity, expressed as Kd, was 0.00425 ± 0.0013 µM. B19 registered a Kd of 0.0161 ± 0.00315 µM.

B20 had a Kd of 0.023 ± 0.0093 µM. Turning to B21, binding was characterised by a dissociation constant (Kd) of 0.0166 ± 0.0035 µM.

B22 came in with a Kd of about 0.0325 µM. The result for B23 reads 0.0144 ± 0.0027 µM; that for B24, 0.0112 ± 0.0031 µM. On to B25, for which the Kd came out at 0.0565 ± 0.0225 µM.

For the molecule B26, the Kd came out at 0.0375 ± 0.008 µM.

In turn, B27 displayed a Kd of 0.0225 ± 0.009 µM. The result for B28 reads about 0.00285 µM; that for B29, 0.038 ± 0.008 µM. Turning to B30, the Kd is 0.0175 ± 0.0075 µM. Molecule B31 had a Kd of about 0.0095 µM.

B32 showed a Kd of about 0.051 µM.

In turn, B33 displayed an equilibrium dissociation constant (Kd) of 0.025 ± 0.0045 µM. Regarding B34, binding was characterised by a dissociation constant (Kd) of 0.00655 ± 0.0028 µM.

The molecule B35 gave a Kd of 0.0205 ± 0.0055 µM. This Kd is about 3.1-fold higher than that of the molecule before. The same measure for B36: 0.0745 ± 0.029 µM; for B37: 0.0142 ± 0.0046 µM.
